Experimental data: patent publication US20210275685A1 (IMMUNOGEN, published 2021)
Numbering of substitutions follows the chain as printed.

Columns and labels:
[1] = molecular target: T1, His-tagged soluble human ADAM9 (human, UniProt Q13443 206-697); test: BIACORE, against antibodies without N54F (Table 3)
T1 construct: also called shADAM9-His; huADAM9-His
T1 sequence: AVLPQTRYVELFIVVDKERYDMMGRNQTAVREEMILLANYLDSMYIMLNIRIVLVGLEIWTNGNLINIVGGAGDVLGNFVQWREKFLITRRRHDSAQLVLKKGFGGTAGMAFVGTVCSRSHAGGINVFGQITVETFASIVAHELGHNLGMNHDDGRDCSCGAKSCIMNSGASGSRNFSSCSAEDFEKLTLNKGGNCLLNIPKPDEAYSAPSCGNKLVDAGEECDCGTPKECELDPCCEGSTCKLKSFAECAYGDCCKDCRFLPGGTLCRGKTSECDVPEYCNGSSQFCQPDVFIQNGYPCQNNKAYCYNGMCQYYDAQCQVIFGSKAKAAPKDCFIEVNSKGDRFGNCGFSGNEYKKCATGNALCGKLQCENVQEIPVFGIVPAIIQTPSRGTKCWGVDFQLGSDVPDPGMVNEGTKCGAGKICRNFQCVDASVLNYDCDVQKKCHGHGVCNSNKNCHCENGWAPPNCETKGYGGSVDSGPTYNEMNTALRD
Description: The relative binding affinity of the humanized/optimized antibodies hMAB-A (1.1), hMAB-A (2.2), hMAB-A (2.3), hMAB-A (3.3), hMAB-A (4.4) and the chimeric chMAB-A (having murine VH/VL Domains) to huADAM was investigated using BIACORE® analysis, in which His-tagged soluble human ADAM9 (“shADAM9-His,” containing an extracellular portion of human ADAM9 fused to a histidine-containing protein) was passed over a surface coated with immobilized antibody. Briefly, each antibody was captured on a Fab2 goat anti-human Fc surface and then incubated in the presence of different concentrations (6.25-100 nM) of the shADAM9-His protein. The kinetics of binding were determined via BIACORE® analysis binding (normalized 1:1 Langmuir binding model). Binding to cynoADAM9 was examined by FACS as described above and by ELISA.

huFcRn = molecular target: T2, huFcRn (Homo sapiens, UniProt P55899); test: sensorgram (RU against time) at pH 6.0: FcRn immobilized, antibody injected at 25 nM and 100 nM; responses of about 60-70 RU and about 190 RU
T2 construct: construct not described; also called human neonatal Fc receptor
T2 sequence (P55899 24-297 limits assumed, form in doubt): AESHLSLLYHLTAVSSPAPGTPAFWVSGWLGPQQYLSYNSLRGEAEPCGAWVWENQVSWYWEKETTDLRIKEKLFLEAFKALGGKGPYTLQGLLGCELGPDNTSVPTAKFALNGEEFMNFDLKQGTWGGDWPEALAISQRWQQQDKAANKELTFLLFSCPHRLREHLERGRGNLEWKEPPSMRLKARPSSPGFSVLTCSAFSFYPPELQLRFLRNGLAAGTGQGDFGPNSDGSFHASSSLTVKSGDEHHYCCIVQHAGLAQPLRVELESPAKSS

B1: hMAB-A (2.2) (antibody, V domains shown)
VH: EVQLVESGGGLVKPGGSLRLSCAASGFTFSSYWMHWVRQAPGKGLEWVGEIIPIFGHTNYNEKFKSRFTISLDNSKNTLYLQMGSLRAEDTAVYYCARGGYYYYGSRDYFDYWGQGTTVTVSS
VL: DIVMTQSPDSLAVSLGERATISCKASQSVDYSGDSYMNWYQQKPGQPPKLLIYAASDLESGIPARFSGSGSGTDFTLTISSLEPEDFATYYCQQSHEDPFTFGQGTKLEIK
notes: also called parental hMAB-A (2.2); hMAB-A VH(2)/hMAB-A VL(2)
In the case of B1, the “fold increase in affinity” value [1] is reported as ~2 fold.

B2: hMAB-A (2.3) (antibody, V domains shown)
VH: B1 VH
VL: B1 VL with K24R
notes: human Fc; also called hMAB-A VH(2)/hMAB-A VL(3)
With B2 the “fold increase in affinity” value [1] was ~2 fold.

B3: hMAB-A (3.3) (antibody, V domains shown)
VH: B1 VH with K63R, K65Q, S66G
VL: B1 VL with K24R
notes: human Fc; also called hMAB-A VH(3)/hMAB-A VL(3)
With B3 the “fold increase in affinity” value [1] was ~2 fold.

B4: hMAB-A (2I.2) (antibody, human IgG1, kappa)
heavy: not shown
light: DIVMTQSPDSLAVSLGERATISCKASQSVDYSGDSYMNWYQQKPGQPPKLLIYAASDLESGIPARFSGSGSGTDFTLTISSLEPEDFATYYCQQSHEDPFTFGQGTKLEIKRTVAAPSVFIFPPSDEQLKSGTASVVCLLNNFYPREAKVQWKVDNALQSGNSQESVTEQDSKDSTYSLSSTLTLSKADYEKHKVYACEVTHQGLSSPVTKSFNRGEC
notes: also called MAB-A VH(2I); MAB-A VH(2I.2)
For B4, the Kd (huFcRn) was 161 nM.
